Experimental data taken from patent US20210032351A1 (XDCEXPLORER SHANGHAI, published 2021).

Columns and labels:
[1] = biological target: human wild-type EGFR protein on the cell surface (human) (UniProt P00533); experiment: FACS on A431 tumor cells
[2] = biological target: EGFR-his (purchased from Sino Biological) (UniProt P00533); experiment: BLI (OctetRED), antibody on anti-human Fc (AHC) biosensor, EGFR-his in solution
[3] = biological target: human wild-type EGFR protein on the cell surface (human) (UniProt P00533); experiment: FACS, MFI on A431 cells over MFI on normal primary hepatocytes
[4] = biological target: human EGFRvIII-hFc protein (human) (UniProt P00533); experiment: ELISA, EGFRvIII-hFc coated
[5] = biological target: human EGFRvIII protein on the cell surface (human) (UniProt P00533); experiment: FACS on U87MG-EGFRvIII cells
[6] = biological target: EGFRvIII-his (purchased from Sino Biological) (UniProt P00533); experiment: BLI (OctetRED), antibody on anti-human Fc (AHC) biosensor, EGFRvIII-his in solution
[7] = biological target: human wild-type EGFR protein on the cell surface (human) (UniProt P00533); experiment: FACS on normal human primary hepatocytes
[8] = biological target: T1, human wild-type EGFR protein on the cell surface (human, UniProt P00533 25-1210); experiment: FACS on A431 cells; A431 cells (large amount of wild-type EGFR on the surface)
T1 construct: whole, on cells; Endogenous on A431, HEB, U87MG cells and normal human primary hepatocytes; transfected on CHOk1-EGFR cells; The cell is named under assay; also called A431; HEB
Experimental: The cells are washed twice with the HBSS buffer and are counted, and then the cells are diluted with the HBSS buffer to 2×10⁶ cells/ml, added with 1% goat serum blocking solution, with the percentage being the mass percentage, and incubated on ice for 30 minutes, and then centrifugally washed twice with the HBSS buffer. The collected cells are suspended to 2×10⁶ cells/mL with an FACS buffer (HBSS+1% BSA, with the percentage being the mass percentage), added to a 96-well FACS reaction plate at 100 μL/well, then added with 100 μL/well of the purified EGFRvIII antibody (samples to be tested) obtained in example 2, and incubated on ice for 2 hours. The plate is centrifugally washed twice with the FACS buffer, added with 100 μL/well of a fluorescence (Alexa 488) labeled secondary antibody (purchased from Invitrogen), and then incubated on ice for 1 hour. The plate is centrifugally washed 3 times with the FACS buffer, added with 100 μL/well of a fixing solution [4% (v/v) paraformaldehyde] for suspending the cells, and centrifugally washed twice with the FACS buffer after 10 minutes. The cells are suspended in 100 μL of the FACS buffer, and the results are detected and analyzed by FACS (FACS Calibur, purchased from BD). Data analysis is performed by using the software (CellQuest) to obtain the mean fluorescence intensity (MFI) of the cells. Data is further analyzed by using the software (GraphPad Prism5) to perform data fitting and calculate EC50. […] A431 cells (human epidermal cell cancer cell lines) have a large amount of wild-type EGFR protein expressed on the surface thereof. […] U87MG cells (human glioma cell lines) have a small amount of wild-type EGFR protein expressed on the surface thereof, while HEB cells (human glioma cell lines) have a high level of wild-type EGFR protein expression on the surface thereof.

[9] = biological target: T2, human EGFRvIII-hFc protein (human, UniProt P00533 25-645); experiment: ELISA, EGFRvIII-hFc coated
T2 construct: extracellular domain; also called immunogen A; hFc-tagged EGFRvIII protein; not shown: human IgG Fc fragment (hFc) of the pCpC vector
Experimental: The purified humanized anti-EGFRvIII antibody obtained in example 12 is reacted with a human EGFRvIII-hFc protein.
(§1) The purified immunogen A (EGFRvIII-hFc) obtained in example 1 (for the preparation method, see step (I) in example 1) is diluted with PBS to a final concentration of 1.0 μg/mL, and then added to a 96-well ELISA plate at 100 μl/well. The plate is sealed with a plastic film and incubated at 4° C. overnight. The next day, the plate is washed twice with a plate washing solution [PBS+0.01% (v/v) Tween20], and added with a blocking solution [PBS+0.01% (v/v) Tween20+1% (w/w) BSA] for blocking 2 hours at room temperature. […] The plate is incubated for 2 hours at 37° C., and then washed 3 times with the plate washing solution [PBS+0.01% (v/v) Tween20]. The plate is added with an HRP (horseradish peroxidase) labeled secondary antibody (purchased from Sigma), incubated at 37° C. for 2 hours, and then washed 3 times with the plate washing solution [PBS+0.01% (v/v) Tween20]. The plate is added with 100 μl of TMB substrate/well, incubated for 30 minutes at room temperature, and then added with 100 μl of stopping solution (1.0N HCl)/well. A450 nm value is read using an ELISA plate reader (SpectraMax 384plus, purchased from Molecular Device).

[10] = biological target: T3, human EGFRvIII protein on the cell surface (human, UniProt P00533 25-1210); experiment: FACS on U87MG-hEGFRvIII cells
T3 construct: whole, on cells; the cell line is named under assay; also called hEGFRvIII; U87MG-hEGFRvIII

[11] = biological target: T3, human EGFRvIII protein on the cell …; experiment: FACS on U87MG-EGFRvIII cells
Experimental: The preparation of U87MG-EGFRvIII required for FACS detection is as described in the preparation of the immunogen B in example 1. Normal human primary hepatocytes are purchased from BioreclamationIVT, and A431 tumor cells are purchased from ATCC. The recovered hepatocytes are directly used for FACS detection, and the recovered U87MG-EGFRvIII and A431 cells are subjected to an expanded culture to 90% confluence in a T-75 cell culture flask; the medium is sucked out, and the cells are washed twice with a HBSS buffer (Hanks Balanced Salt Solution) (purchased from Invitrogen), and then treated with an enzyme-free cell dissociation solution (Versene solution: purchased from Life Technology) and collected. The cells are washed twice with the HBSS buffer and are counted, and then the cells are diluted with the HBSS buffer to 2×10⁶ cells/ml, added with 1% goat serum blocking solution, with the percentage being the mass percentage, and incubated on ice for 30 minutes, and then centrifugally washed twice with the HBSS buffer. The collected cells are resuspended to 2×10⁶ cells/mL with an FACS buffer (HBSS+2% FBS, with the percentage being the volume percentage), added to a 96-well FACS reaction plate at 100 μL/well, then added with 100 μL/well of the purified EGFRvIII antibody (samples to be tested) obtained in example 12, and incubated on ice for 2 hours. The plate is centrifugally washed twice with the FACS buffer, added with 100 μL/well of a 1:1000 diluted fluorescence (Alexa 488) labeled secondary antibody (purchased from Invitrogen), and incubated on ice for 1 hour. The plate is centrifugally washed 3 times with the FACS buffer, added with 100 μL/well of a fixing solution [4% (v/v) paraformaldehyde] to resuspend the cells, and centrifugally washed twice with the FACS buffer after 10 minutes. The cells are resuspended in 100 μL of the FACS buffer, and the results are detected and analyzed by FACS (FACS Calibur, purchased from BD). Data analysis is performed by using the software (CellQuest) to obtain the mean fluorescence intensity (MFI) of the cells. Data is further analyzed by using the software (GraphPad Prism5) to perform data fitting and calculate EC50.

[12] = biological target: T2, human EGFRvIII-hFc protein; experiment: ELISA, EGFRvIII-hFc coated; remark: listed apart in the source
Experimental: as §1, with “Device), and the results are shown in FIG. 11 and table 19.” for “Device).”

Row | Binder | MFI [1] | Kd [2] | koff [2] | kon [2] | Selective window (MFI A431/Hepatocytes) [3] | EC50 [4] | Maximum OD450 value [4] | EC50 [5] | Maximum mean fluorescence intensity [5] | Kd [6] | koff [6] | kon [6] | MFI [7] | EC50 [8] | EC50 [10] | OD450 nm at 0.0001 nM antibody [12] | OD450 nm at 0.001 nM antibody [12] | OD450 nm at 0.01 nM antibody [12] | OD450 nm at 0.1 nM antibody [12] | OD450 nm at 1 nM antibody [12] | other results
1 | Humanized antibody h75G7C6-1 (antibody, human IgG1, V domains shown) VH: EVQLVQSGAEVKKPGASVKVSCKASGYTFTDYNMDWVKQAPGQGLEWIGDINPNNADTIYNQKFKGRVTLTVDKSTSTVYMELSSLRSEDTAVYYCARGDYDGYYPVYYAMDYWGQGTTVTVSS VL: EIVLTQSPATLSLSPGERATLSCRASSSVSSSYLHWYQQKPGQAPRLLIYSTSNLAAGIPARFSGSGSGTDFTLTISSLEPEDFAVYYCQQYSGYPLTFGGGTKVEIK | 9780 MFI | 205 nM | 0.00353 s⁻¹ | 17200 M⁻¹ s⁻¹ | 35.5 fold | 0.49 nM | 3.41 OD450 | 4.93 nM | 18300 MFI | 1.71 nM | 0.000141 s⁻¹ | 82800 M⁻¹ s⁻¹ | 277 MFI | – | – | – | – | – | – | – | –
2 | Humanized antibody h75G7C6-2 (antibody, human IgG1, V domains shown) VH: EVQLVQSGAEVKKPGASVKVSCKASGYTFTDYNMDWVKQAPGQGLEWIGDINPNNADTIYNQKFKGRVTLTVDKSTSTVYMELSSLRSEDTAVYYCARGDYDGYYPVYYAMDYWGQGTTVTVSS VL: ENVLTQSPATLSLSPGERATLSCRASSSVSSSYLHWYQQKPGQAPRLLIFSTSNLAAGIPARFSGSGSGTDYTLTISSLEPEDFAVYYCQQYSGYPLTFGGGTKVEIK | 11800 MFI | 200 nM | 0.00405 s⁻¹ | 20300 M⁻¹ s⁻¹ | 47 fold | 0.38 nM | 3.38 OD450 | 5.67 nM | 18300 MFI | 1.54 nM | 0.00014 s⁻¹ | 90600 M⁻¹ s⁻¹ | 250 MFI | – | – | – | – | – | – | – | –
3 | Chimeric antibody 63A10 (antibody, human IgG1, V domains shown, also called c63A10A7; chimeric antibody c63A10A7) VH: QVQLQQSGAELARPGASVKMSCKASGYTFISFTMHWVKQRPGQGLEWIGYINPNSGYTKYNQKFKDKATLTAGQSSSTAYMQLSSLTSEDSAVYYCTRGGGRGFAYWGQGTLVTVSA VL: DILMTQSPSSMSVSLGDTVTITCHASQDINSNIGWLQQKPGKSFKALIYHGTNLEDGVPSRFSGSGSGADYSLTISSLESEDFADYYCVQYAQFPFTFGSGTKLEIK | – | – | – | – | – | – | – | – | – | – | – | – | – | 696 nM | 2.2 nM | 0.07 OD450 | 0.11 OD450 | 0.37 OD450 | 1.05 OD450 | 3.33 OD450 | EC50 [9]: 0.22 nM; Maximum OD450 value [9]: 3.6 OD450; EC50 [11]: 3.8 nM; Maximum mean fluorescence intensity [11]: 11600 MFI; OD450 nm at 10 nM antibody [12]: 3.55 OD450; OD450 nm at 100 nM antibody [12]: 3.55 OD450
4 | Chimeric antibody 64F1 (antibody, human IgG1, V domains shown, also called clone 64F1F8) VH: QVQLQQSGAELARPGASVKMSCKASGYTFSSYTMHWAKQRPGQGLEWIGYINPSSGYTKYNQKFKDKATLTADKSSSTAYMQLSSLTSEDSIVYYCARGGGRGFAYWGQGTLVTVSA VL: QIVLTQSPAIMSASPGERVTMTCSASSSVSYMYWYQQKPGSSPRLLIYDTSNLASGVPVRFSGSGSGTSYSLTISRVEAEDAATYYCQQWSSYSLTFGAGTKLELK | – | – | – | – | – | – | – | – | – | – | – | – | – | 180 nM | 2.1 nM | 0.08 OD450 | 0.11 OD450 | 0.35 OD450 | 2.23 OD450 | 3.72 OD450 | OD450 nm at 10 nM antibody [12]: 3.78 OD450; OD450 nm at 100 nM antibody [12]: 3.7 OD450
